We go through 2 proteins from ChEMBL document CHEMBL2073963, “Transport of methotrexate (MTX) and folates by multidrug resistance protein (MRP) 3 and MRP1: effect of polyglutamylation on MTX transport” (Cancer Res, 2001).

Broadly, the Km is the substrate concentration at which the rate is half of its maximum.

Common to all, as to assay type: functional, cell membranes
Substrate in data set [1]: CN(Cc1cnc2nc(N)nc(N)c2n1)c1ccc(C(=O)N[C@@H](CCC(=O)O)C(=O)O)cc1
The experiment in a line: TP_TRANSPORTER: uptake in membrane vesicle from MRP1-expressing NIH3T3 cells.

Substrate in data set [2]: CN(Cc1cnc2nc(N)nc(N)c2n1)c1ccc(C(=O)N[C@@H](CCC(=O)O)C(=O)O)cc1
The experiment in a line: (§1) TP_TRANSPORTER: uptake in membrane vesicles from MRP3-expressing HEK293 cells. The following applies: Membrane vesicle.

Substrate in data set [3]: Nc1nc(=O)c2c([nH]1)NCC(CNc1ccc(C(=O)N[C@@H](CCC(=O)O)C(=O)O)cc1)N2C=O
The data set is described as §1. Particulars: Membrane vesicle.

Substrate in data set [4]: Nc1nc(=O)c2nc(CNc3ccc(C(=O)N[C@@H](CCC(=O)O)C(=O)O)cc3)cnc2[nH]1
The description is as §1. Particulars: Membrane vesicle.

B1: Multidrug resistance-associated protein 1 (Homo sapiens) (protein)
chain: MALRGFCSADGSDPLWDWNVTWNTSNPDFTKCFQNTVLVWVPCFYLWACFPFYFLYLSRHDRGYIQMTPLNKTKTALGFLLWIVCWADLFYSFWERSRGIFLAPVFLVSPTLLGITMLLATFLIQLERRKGVQSSGIMLTFWLVALVCALAILRSKIMTALKEDAQVDLFRDITFYVYFSLLLIQLVLSCFSDRSPLFSETIHDPNPCPESSASFLSRITFWWITGLIVRGYRQPLEGSDLWSLNKEDTSEQVVPVLVKNWKKECAKTRKQPVKVVYSSKDPAQPKESSKVDANEEVEALIVKSPQKEWNPSLFKVLYKTFGPYFLMSFFFKAIHDLMMFSGPQILKLLIKFVNDTKAPDWQGYFYTVLLFVTACLQTLVLHQYFHICFVSGMRIKTAVIGAVYRKALVITNSARKSSTVGEIVNLMSVDAQRFMDLATYINMIWSAPLQVILALYLLWLNLGPSVLAGVAVMVLMVPVNAVMAMKTKTYQVAHMKSKDNRIKLMNEILNGIKVLKLYAWELAFKDKVLAIRQEELKVLKKSAYLSAVGTFTWVCTPFLVALCTFAVYVTIDENNILDAQTAFVSLALFNILRFPLNILPMVISSIVQASVSLKRLRIFLSHEELEPDSIERRPVKDGGGTNSITVRNATFTWARSDPPTLNGITFSIPEGALVAVVGQVGCGKSSLLSALLAEMDKVEGHVAIKGSVAYVPQQAWIQNDSLRENILFGCQLEEPYYRSVIQACALLPDLEILPSGDRTEIGEKGVNLSGGQKQRVSLARAVYSNADIYLFDDPLSAVDAHVGKHIFENVIGPKGMLKNKTRILVTHSMSYLPQVDVIIVMSGGKISEMGSYQELLARDGAFAEFLRTYASTEQEQDAEENGVTGVSGPGKEAKQMENGMLVTDSAGKQLQRQLSSSSSYSGDISRHHNSTAELQKAEAKKEETWKLMEADKAQTGQVKLSVYWDYMKAIGLFISFLSIFLFMCNHVSALASNYWLSLWTDDPIVNGTQEHTKVRLSVYGALGISQGIAVFGYSMAVSIGGILASRCLHVDLLHSILRSPMSFFERTPSGNLVNRFSKELDTVDSMIPEVIKMFMGSLFNVIGACIVILLATPIAAIIIPPLGLIYFFVQRFYVASSRQLKRLESVSRSPVYSHFNETLLGVSVIRAFEEQERFIHQSDLKVDENQKAYYPSIVANRWLAVRLECVGNCIVLFAALFAVISRHSLSAGLVGLSVSYSLQVTTYLNWLVRMSSEMETNIVAVERLKEYSETEKEAPWQIQETAPPSSWPQVGRVEFRNYCLRYREDLDFVLRHINVTINGGEKVGIVGRTGAGKSSLTLGLFRINESAEGEIIIDGINIAKIGLHDLRFKITIIPQDPVLFSGSLRMNLDPFSQYSDEEVWTSLELAHLKDFVSALPDKLDHECAEGGENLSVGQRQLVCLARALLRKTKILVLDEATAAVDLETDDLIQSTIRTQFEDCTVLTIAHRLNTIMDYTRVIVLDKGEIQEYGAPSDLLQQRGLFYSMAKDAGLV
As for B1, the Km in data set [1] was 2150 µM.

B2: Multidrug resistance associated protein (Homo sapiens), Q96QA9 (protein)
chain: MDALCGSGELGSKFWDSNLSVHTENPDLTPCFQNSLLAWVPCIYLWVALPCYLLYLRHHCRGYIILSHLSKLKMVLGVLLWCVSWADLFYSFHGLVHGRAPAPVFFVTPLVVGVTMLLATLLIQYERLQGVQSSGVLIIFWFLCVVCAIVPFRSKILLAKAEGEISDPFRFTTFYIHFALVLSALILACFREKPPFFSAKNVDPNPYPETSAGFLSRLFFWWFTKMAIYGYRHPLEEKDLWSLKEEDRSQMVVQQLLEAWRKQEKQTARHKASAAPGKNASGEDEVLLGARPRPRKPSFLKALLATFGSSFLISACFKLIQDLLSFINPQLLSILIRFISNPMAPSWWGFLVAGLMFLCSMMQSLILQHYYHYIFVTGVKFRTGIMGVIYRKALVITNSVKRASTVGEIVNLMSVDAQRFMDLAPFLNLLWSAPLQIILAIYFLWQNLGPSVLAGVAFMVLLIPLNGAVAVKMRAFQVKQMKLKDSRIKLMSEILNGIKVLKLYAWEPSFLKQVEGIRQGELQLLRTAAYLHTTTTFTWMCSPFLVTLITLWVYVYVDPNNVLDAEKAFVSVSLFNILRLPLNMLPQLISNLTQASVSLKRIQQFLSQEELDPQSVERKTISPGYAITIHSGTFTWAQDLPPTLHSLDIQVPKGALVAVVGPVGCGKSSLVSALLGEMEKLEGKVHMKGSVAYVPQQAWIQNCTLQENVLFGKALNPKRYQQTLEACALLADLEMLPGGDQTEIGEKGINLSGGQRQRVSLARAVYSDADIFLLDDPLSAVDSHVAKHIFDHVIGPEGVLAGKTRVLVTHGISFLPQTDFIIVLADGQVSEMGPYPALLQRNGSFANFLCNYAPDEDQGHLEDSWTALEGAEDKEALLIEDTLSNHTDLTDNDPVTYVVQKQFMRQLSALSSDGEGQGRPVPRRHLGPSEKVQVTEAKADGALTQEEKAAIGTVELSVFWDYAKAVGLCTTLAICLLYVGQSAAAIGANVWLSAWTNDAMADSRQNNTSLRLGVYAALGILQGFLVMLAAMAMAAGGIQAARVLHQALLHNKIRSPQSFFDTTPSGRILNCFSKDIYVVDEVLAPVILMLLNSFFNAISTLVVIMASTPLFTVVILPLAVLYTLVQRFYAATSRQLKRLESVSRSPIYSHFSETVTGASVIRAYNRSRDFEIISDTKVDANQRSCYPYIISNRWLSIGVEFVGNCVVLFAALFAVIGRSSLNPGLVGLSVSYSLQVTFALNWMIRMMSDLESNIVAVERVKEYSKTETEAPWVVEGSRPPEGWPPRGEVEFRNYSVRYRPGLDLVLRDLSLHVHGGEKVGIVGRTGAGKSSMTLCLFRILEAAKGEIRIDGLNVADIGDPILFSGTLRMNLDPFGSYSEEDIWWALELSHLHTFVSSQPAGLDFQCSEGGENLSVGQRQLVCLARALLRKSRILVLDEATAAIDLETDNLIQATIRTQFDTCTVLTIAHRLNTIMDYTRVLVLDKGVVAEFDSPANLIAARGIFYGMARDAGLA
As for B2, the Km in data set [2] worked out at 620 µM; in data set [3] it was 1740 µM; in data set [4], 1960 µM.
